# Source: PMC3115387 (Proteins, 2011)
# Molecular target: the molecule itself
# Assay: native gel or EMSA
protein,measurement,value
"Mitomycin-7-O-methyltransferase (MmcR), recombinant N-His6-MmcR (enzyme, Streptomyces lavendulae, selenomethionine (SeMet-labeled protein used for the crystals)) MTVEQTPENPGTAARAAAEETVNDILQGAWKARAIHVAVELGVPELLQEGPRTATALAEATGAHEQTLRRLLRLLATVGVFDDLGHDDLFAQNALSAVLLPDPASPVATDARFQAAPWHWRAWEQLTHSVRTGEASFDVANGTSFWQLTHEDPKARELFNRAMGSVSLTEAGQVAAAYDFSGAATAVDIGGGRGSLMAAVLDAFPGLRGTLLERPPVAEEARELLTGRGLADRCEILPGDFFETIPDGADVYLIKHVLHDWDDDDVVRILRRIATAMKPDSRLLVIDNLIDERPAASTLFVDLLLLVLVGGAERSESEFAALLEKSGLRVERSLPCGAGPVRIVEIRRA",stoichiometry N,2
